Laboratory results published in the supplement of paper PMC9732359.
± gives the uncertainty stated by the source.

Assay: protein stability index of a GFP-peptide fusion (yeast GPS) (PSI 1-4); higher = more stable; sorted into four equal gates, so the index is relative within each strain
Conditions: doa10∆
How it was run: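 Yeast carrying a pooled library were grown to mid-log phase in leucine-free medium. Each library plasmid expresses Cherry and has a tiled 17-residue yeast protein peptide fused downstream of GFP. Cells were sorted into four equal gates by GFP/Cherry ratio, and plasmids from each gate were PCR-amplified, Illumina-sequenced and assigned to strains by barcode. Summing, across gates, the read frequency times the gate number gave each peptide's protein stability index.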
Work on KCTAEGIKVSLLGIFDD [RPC25] yielded a protein stability index of 2.19 ± 0.077. In the case of KDLFELERYYKEQADIY [ARP7], the protein stability index is reported as 3.11 ± 0.09. Sequence KDLQWLEFARITPMNDD [SIN4] has a protein stability index of 2.94 ± 0.1. KDQYVPEVSALDLSRSN [RPS17A] showed a protein stability index of 2.16 ± 0.14. With KDTPFTIYDGEAVAKYI [PRE5] the protein stability index was 2.69 ± 0.073. With KEASQEDDNNNVEKPSS [YLR335W/NUP2] the protein stability index was 3.11 ± 0.088. Work on KEDSTIQDSNGDVKNME [SWI3] yielded a protein stability index of 3.09 ± 0.11. In the case of KEEISDQKPIEHIKEGS [SWI3], the protein stability index is reported as 2.96 ± 0.053. With KEHEPCIIFMDEVDAIG [RPT4] the protein stability index was 1.85 ± 0.049. Sequence KEIKTNEYVIKTPVFTT [YMR129W/POM152] has a protein stability index of 2.1 ± 0.072. For KEISARRYKLLTATPNS [POP1], the protein stability index was 2.1 ± 0.051. With KEKAPTIIFIDELDAIG [RPT5] the protein stability index was 2.57 ± 0.068. KEKIEKLSKSATESIKN [SMC1] gave a protein stability index of 3.28 ± 0.12. In the case of KEKLTVQDCRYSLASVT [POP1], the protein stability index is reported as 2.69 ± 0.039. KEPVALIETVRQMKDVN [RPN2] showed a protein stability index of 3.36 ± 0.059. KERSIVVGRTTRSNPPF [REC8] showed a protein stability index of 2.7 ± 0.055. In the case of KESIVLPTVGFDFIKDN [YOR098C/NUP1], the protein stability index is reported as 2.39 ± 0.14. Sequence KESPWKILMYQYNIPPE [RRP6] has a protein stability index of 2.23 ± 0.07. With KETAPVIDTLAAGYGKI [RPL28] the protein stability index was 1.96 ± 0.088. Work on KETWLHELSSSHTSLVK [SRB8] yielded a protein stability index of 1.81 ± 0.05. For KFLQVMQKHGYIGEFEY [RPS22A], the protein stability index was 2.68 ± 0.063. Sequence KFNAAPEENATEGPSDK [SNF12] has a protein stability index of 3.1 ± 0.16. With KFNELVKLMKNITDYET [BRR2] the protein stability index was 1.11 ± 0.042. KFQETLLRQKIEQCKHP [ISW2] showed a protein stability index of 1.34 ± 0.068. With KGAATGKGRQSAKAELE [PRE10] the protein stability index was 1.24 ± 0.088. KGDLRRGFIKSEGSGSS [RPC53] showed a protein stability index of 3.43 ± 0.14. KGEEAKLDSKKTVPFQV [SSN3] gave a protein stability index of 3.27 ± 0.087. Sequence KGEMKGSAITGPVGKEC [RPL23A] has a protein stability index of 3.19 ± 0.065. KGIDSVVRRRFRGNISQ [RPL32] showed a protein stability index of 2.82 ± 0.14. With KGKTPKNAAESSYMGKH [PRP28] the protein stability index was 3.18 ± 0.12. KGLIKVNGSPITLVEPE [RPS16A] showed a protein stability index of 3.09 ± 0.095. Work on KGLVSQQLDSFNQFVDY [RPB2] yielded a protein stability index of 2.64 ± 0.077. For KHEEIDTKNLYVIKALQ [RPS10A], the protein stability index was 1.6 ± 0.085. In the case of KHLWDQKSLAALKKSRS [RPC17], the protein stability index is reported as 2.75 ± 0.12. In the case of KIAHGTTTLAFRFQGGI [PRE2], the protein stability index is reported as 3.03 ± 0.095. Work on KIDKPIRTQVNTGGESV [RGR1] yielded a protein stability index of 2.4 ± 0.06. Work on KIDSHVVLSFSGLNADS [PRE6] yielded a protein stability index of 1.8 ± 0.062. For KIESLAGGGESDSALIL [UBP6], the protein stability index was 3.25 ± 0.18. For KIHQQLLFKARLQQQQA [GAL11], the protein stability index was 1.3 ± 0.088. Sequence KIIELMNKIFTIFKSGE [YML103C/NUP188] has a protein stability index of 3.01 ± 0.08. In the case of KILEQFEYVLYPSKTLK [FAS2], the protein stability index is reported as 3.01 ± 0.078. KILPTDIQLKNLFPLKP [SRP68] showed a protein stability index of 2.41 ± 0.059. KINSWDQVLVKGGEQIS [YJL041W/NSP1] gave a protein stability index of 2.04 ± 0.087. For KIPAVEYFGGESPVDVQ [FAS1], the protein stability index was 2.97 ± 0.13. Sequence KIRRAARDLLTRDEKDP [RPS9A] has a protein stability index of 2.33 ± 0.08. With KISEGSAKPTFSFSKSE [YOR098C/NUP1] the protein stability index was 1.75 ± 0.11. With KISFNLRLKLFLYEILS [SRB8] the protein stability index was 1.22 ± 0.066. Work on KIVEIDRHIGCAMSGLT [PUP2] yielded a protein stability index of 1.82 ± 0.07. Work on KIWSVKDGSNPRTLIGH [RPN14] yielded a protein stability index of 3.12 ± 0.11. KKAEKAARKAEKAKSAG [RPL24A] gave a protein stability index of 3.34 ± 0.066. KKAVKELYEVDVLKVNT [RPL25] showed a protein stability index of 3.01 ± 0.069. Sequence KKDSKPAFSFGISNGSE [YLR335W/NUP2] has a protein stability index of 3.16 ± 0.067. Work on KKGESEKDASGKPSFVF [YOR098C/NUP1] yielded a protein stability index of 2.19 ± 0.066. Sequence KKINAKEKLIGWYHSGP [RPN8] has a protein stability index of 2.91 ± 0.085. Work on KKISSFKSLIDEDLLDT [YGL172W/NUP49] yielded a protein stability index of 3.08 ± 0.097. With KKLEITSDGALSVMCGC [RPR2] the protein stability index was 2.63 ± 0.047. For KKRFDEFMAGFNIISMT [SMC4], the protein stability index was 2.64 ± 0.097. KKSKNGTISKTGKKNKV [SRP14] gave a protein stability index of 2.93 ± 0.11. In the case of KKSKRLDKVGKKKGGKK [LRP1], the protein stability index is reported as 3.16 ± 0.15. With KKTRIIPRHLQLAIRND [HTA1] the protein stability index was 2.47 ± 0.088. For KKVGITGKYGVRYGSSL [RPL43A], the protein stability index was 3.16 ± 0.065. With KKYSSKNKYGEINSEDY [SRP68] the protein stability index was 3.22 ± 0.12. Sequence KKYTQNNPLLLIVDVKQ [RPN8] has a protein stability index of 1.4 ± 0.068. KLANFFSKKGNEPLSEI [YAR002W/NUP60] showed a protein stability index of 2.82 ± 0.095. In the case of KLCYVLGVEDITLIDSA [RET1], the protein stability index is reported as 1.58 ± 0.12. For KLEAEEIPSEDQNEFLL [FAS2], the protein stability index was 2.62 ± 0.13. KLELINRYAYVLSSLMF [LRP1] gave a protein stability index of 2.21 ± 0.05. KLEYPHTDVSSSLEARY [RPN3] gave a protein stability index of 2.76 ± 0.066. KLFTTNELMRWPIVQKT [RPN5] gave a protein stability index of 1.79 ± 0.096. Work on KLHVAAKLPGHKSLIRS [YGL100W/SEH1] yielded a protein stability index of 1.83 ± 0.11. For KLISAFDDLEVEELPTF [RRP42], the protein stability index was 2.57 ± 0.06. KLKDSKKLFQKKENLTR [YML103C/NUP188] gave a protein stability index of 2.57 ± 0.12. With KLLDSGCENPADVFRRC [SRP72] the protein stability index was 2.46 ± 0.058. Work on KLLKSLKNTKYFQQTTI [PRP8] yielded a protein stability index of 2.12 ± 0.076. KLNDSQRKTVNSDDILS [POP1] showed a protein stability index of 2.3 ± 0.075. KLNIETMRKISSETDDD [DSN1] gave a protein stability index of 2.56 ± 0.074. With KLNKVDKNELQQMIITR [SIR3] the protein stability index was 3.12 ± 0.074. Work on KLPLSVINVSAQRDRRY [RPS17A] yielded a protein stability index of 1.8 ± 0.064. KLREKVNDVELAFKKNE [MTW1] gave a protein stability index of 3.1 ± 0.13. KLRETLVKIDDLSANQR [SMC1] showed a protein stability index of 3.11 ± 0.11. KLSESLDTRKELWRKEQ [SMC3] gave a protein stability index of 1.29 ± 0.077. KLTQKLVTAGVAAAGIT [CYT1] gave a protein stability index of 2.1 ± 0.083. Work on KLVLAARIIAAIPNPED [RPS0A] yielded a protein stability index of 1.71 ± 0.074. With KLYDKTENDIKALQSIG [RPT4] the protein stability index was 2.65 ± 0.18. KMDMICRNINRKHRNAQ [DIS3] gave a protein stability index of 2.2 ± 0.074. KMEKKKSSSLSLESFMK [SNM1] showed a protein stability index of 3.06 ± 0.1. Work on KMPGGFTITVARKYLQT [FAS2] yielded a protein stability index of 1.24 ± 0.039. For KNATDLQQAKLRESEIS [SMC3], the protein stability index was 3.17 ± 0.073. In the case of KNDEVLGLLLPIAASTD [RPN1], the protein stability index is reported as 2.02 ± 0.055. In the case of KNDTHYLLPDDFHFSTD [BRN1], the protein stability index is reported as 2.81 ± 0.072. KNDTKILVLALEDLKDV [PRP8] showed a protein stability index of 1.6 ± 0.1. Work on KNEEAEIEVDEMEVDAE [RPN1] yielded a protein stability index of 3.4 ± 0.14. With KNEETPQNEKPPAYALL [RPC25] the protein stability index was 2.27 ± 0.23. KNFENGPKKNVFYAPNV [RPC34] gave a protein stability index of 2.99 ± 0.068. With KNIAQCLSDYTKKISNF [YJL039C/NUP192] the protein stability index was 1.79 ± 0.055. In the case of KNISSQLDSKLMVFNDD [YGR119C/NUP57], the protein stability index is reported as 2.12 ± 0.041. In the case of KNLNPASSSPSSTDFST [ECM29], the protein stability index is reported as 3.11 ± 0.049. For KNMFEKKASKVTVDADI [ISW2], the protein stability index was 2.44 ± 0.063. Work on KNSSQLLNEWSHNVDEL [RPN5] yielded a protein stability index of 2.75 ± 0.057. KNSSVSSLMNGLGYVFE [SRB5] gave a protein stability index of 3.06 ± 0.14. KPHGLAARVDIGQIIFS [RPL10] showed a protein stability index of 2.31 ± 0.058. KPKNTKENLSKSSWRQE [SIR4] gave a protein stability index of 1.35 ± 0.076. Sequence KPLGLDRYGNRYFWLDH [ITC1] has a protein stability index of 2.77 ± 0.11.
